Laboratory results from patent US20210363247A1, “Novel Treatments of Glaucoma” (The Regents of the University of California, priority 2019, published 2021).
Entries after “also recorded” stand apart in the source; their conditions may differ.

What was measured:
rabbit = rabbit model, inhibitor delivered locally by eye drops, IOP; format: in vivo
Text: (§1) These protocols employ two different antibodies: anti-human WNTSA antibody produced in rabbit purified immunoglobulin, buffered aqueous solution (Sigma-Aldrich SAB1411396), and an anti-human WNTSA monoclonal antibody produced in mouse clone 6F2, ascites fluid (Sigma-Aldrich SAB5300183), although other Wnt5a antibodies can be used, e.g. Hanaki et al., Mol Cancer Ther 11(2) February 2012; He et al. Oncogene. 2005, 24 (18): 3054-3058.
(§2) These protocols employ a t-butyloxycarbonyl-modified Wnt5a-derived hexapeptide (Box5) that functions as a potent antagonist of Wnt5a (Jenei, et la., PNAS USA, 106 (46), 19473-8), and 6,7-dihydro -10alpha-hydroxy radicicol, a potent WNT-5A expression inhibitor with relatively low toxicity and excellent stability (Shinonaga et al. Bioorg Med Chem. 2009 Jul. 1; 17(13):4622-35).
(§3) These protocols employed OMP18R5 (a humanized monoclonal antibody that binds FZD5), Abcam ab52565 (a monoclonal antibody that binds FZD2), and cirmtuzumab (a humanized IgG1 anti-ROR1 monoclonal antibody), though an anti-human FZD5, FZD2 siRNA and ROR1 polyclonal and monoclonal antibodies, are commercially available from multiple sources, e.g. ThermoFisher Scientific, Abcam, SigmaAldrich, etc.); see also U.S. Pat. No. 9,573,998 for antibodies against human FZD5.

mouse = mouse model, inhibitor delivered locally by eye drops, IOP; format: in vivo
Text: as §1, §2, §3

[1] = tested on: human Schlemm's canal cells; assay: tube formation of human Schlemm's canal cells; format: cell-based; details: in vitro; vs scrambled siRNA, isotype control or vehicle control of ethanol (0.07%); *P<0.05
Text: FIGS. 1A-G. (A-C) Real-time quantitative PCR data showing the expression levels of FZD5, ROR1 and FZD2 in human Schlemm's canal cells are regulated by sheer stress (A), Wnt5a intervention by small interference RNAs (siRNAs) (B), or Wnt5a stimulation (C). (D and E) Summarized data showing that tube formation of human Schlemm's canal cells was inhibited by FZD5 siRNA (D) or ROR1 siRNA (E), respectively. Scrambled siRNA was used as negative control. *P<0.05. (F and G) Representative images showing that tube formation of human Schlemm's canal cells are regulated by the intervention of FZD5 (F) or ROR1 (G) via siRNAs. *P<0.05. […]
(§4) In exemplary models vivo data were obtained using well-established mouse model of glaucoma with laser-induced occlusion of episcleral veins (Zhang L, et al. Establishment and Characterization of an Acute Model of Ocular Hypertension by Laser-Induced Occlusion of Episcleral Veins. Invest Ophthalmol Vis Sci. 2017 Aug. 1; 58(10):3879-3886). […] Central corneal thickness and RNFL were measured on Day 3 or Day 7 by in vivo OCT, respectively. […]

[2] = tested on: human Schlemm's canal cells; assay: real-time quantitative PCR of expression levels in human Schlemm's canal cells; format: cell-based
Text: FIGS. 1A-G. (A-C) Real-time quantitative PCR data showing the expression levels of FZD5, ROR1 and FZD2 in human Schlemm's canal cells are regulated by sheer stress (A), Wnt5a intervention by small interference RNAs (siRNAs) (B), or Wnt5a stimulation (C). (D and E) Summarized data showing that tube formation of human Schlemm's canal cells was inhibited by FZD5 siRNA (D) or ROR1 siRNA (E), respectively. Scrambled siRNA was used as negative control. *P<0.05. (F and G) Representative images showing that tube formation of human Schlemm's canal cells are regulated by the intervention of FZD5 (F) or ROR1 (G) via siRNAs. *P<0.05.
(§5) FIGS. 2A-C. (A-C, top panels) Real-time quantitative PCR data showing the expression levels of PLCB1, PPP3R1 and NFATC3 in human Schlemm's canal cells are regulated by sheer stress (A), Wnt5a intervention via siRNAs (B), or Wnt5a stimulation (C). (A-C, lower panels) Representative images and summarized data of Fluo-4 staining showing intracellular calcium signal is regulated by sheer stress (A), Wnt5a intervention via siRNAs (B), or Wnt5a stimulation (C). Green: Fluo-4, blue: DAPI nuclear staining *P<0.05.
FIGS. 3A-B. Real-time quantitative PCR data showing the expression of CAMK2D in human Schlemm's canal cells is regulated by sheer stress (A), or wnt5a stimulation (B), respectively. *P<0.05.
as §4, with “58(10):3879-3886). Intraocular hypertension is introduced in the right eyes (OD) of the mice with the left eyes (OS) as controls.” for “58(10):3879-3886).”

[3] = tested on: human Schlemm's canal cells; assay: Fluo-4 staining of intracellular calcium signal; format: cell-based
Text: as §5
In exemplary models vivo data were obtained using well-established mouse model of glaucoma with laser-induced occlusion of episcleral veins (Zhang L, et al. Establishment and Characterization of an Acute Model of Ocular Hypertension by Laser-Induced Occlusion of Episcleral Veins. Invest Ophthalmol Vis Sci. 2017 Aug. 1; 58(10):3879-3886). Intraocular hypertension is introduced in the right eyes (OD) of the mice with the left eyes (OS) as controls. In these examples, the inhibitors or their controls were delivered daily to the right eyes via local administration of subconjunctival injection, starting from Day 1 after the induction of intraocular hypertension in the right eyes of the mice. Left eyes were used as controls. Central corneal thickness and RNFL were measured on Day 3 or Day 7 by in vivo OCT, respectively. All in vitro data were collected from human Schlemm's cells in culture.

Molecule: 6,7-dihydro -10alpha-hydroxy radicicol
- therapy for pathogenic IOP (rabbit): effective therapies
- therapy for pathogenic IOP (mouse): effective therapies

Molecule: O=C(OC[C@H]1O[C@@H](OC(=O)c2cc(O)c(O)c(O)c2)[C@H](OC(=O)c2cc(O)c(O)c(O)c2)[C@@H](OC(=O)c2cc(O)c(O)c(O)c2)[C@@H]1OC(=O)c1cc(O)c(O)c(O)c1)c1cc(O)c(O)c(O)c1 [DB03208, Beta-1,2,3,4,6-Penta-O-Galloyl-D-Glucopyranose]
- tube formation of human Schlemm's canal cells [1]: inhibited

B1: Wnt5a: Wnt5a used to stimulate human SC cells (protein, UniProt P41221 62-380, looked up)
Protein Wnt-5a: IIGAQPLCSQLAGLSQGQKKLCHLYQDHMQYIGEGAKTGIKECQYQFRHRRWNCSTVDNTSVFGRVMQIGSRETAFTYAVSAAGVVNAMSRACREGELSTCGCSRAARPKDLPRDWLWGGCGDNIDYGYRFAKEFVDARERERIHAKGSYESARILMNLHNNEAGRRTVYNLADVACKCHGVSGSCSLKTCWLQLADFRKVGDALKEKYDSAAAMRLNSRGKLVQVNSRFNSPTTQDLVYIDPSPDYCVRNESTGSLGTQGRLCNKTSEGMDGCELMCCGRGYDQFKTVQTERCHCKFHWCCYVKCKKCTEIVDQFVCK
- expression levels of FZD5, ROR1 and FZD2 [2]: regulated; also recorded: increased
- expression levels of PLCB1, PPP3R1 and NFATC3 [2]: regulated
- expression of CAMK2D [2]: regulated
- intracellular calcium signal [3]: regulated
